According to patent publication US8809287B2, “Compositions and methods for altering Wnt autocrine signaling” (Icahn School of Medicine at Mount Sinai, priority 2004, dated 2014):
“Also recorded” adds a separate entry of the source.

B1: DKK1: Dickkopf-1, secreted Wnt antagonist protein that binds Wnt co-receptor LRP6; used purified, in conditioned media or retrovirally expressed with HA tag (protein, UniProt O94907 32-266, looked up)
Dickkopf-related protein 1: TLNSVLNSNAIKNLPPPLGGAAGHPGSAVSAAPGILYPGGNKYQTIDNYQPYPCAEDEECGTDEYCASPTRGGDAGVQICLACRKRRKRCMRHAMCCPGNYCKNGICVSSDQNHFRGEIEETITESFGNDHSTLDGYSRRTTLSSKMYHTKGQEGSVCLRSSDCASGLCCARHFWSKICKPVLKEGQVCTKHRRKGSHGLEIFQRCYCGEGLSCRIQKDHHQASNSSRLHTCQRH
modifications: HA tag in some uses
B2: FRP1: human secreted Frizzled Related Protein 1, Wnt antagonist; expressed from pBabe-derived retrovirus with carboxy-terminal HA tag (protein, UniProt Q8N474 32-314, looked up)
Secreted frizzled-related …: SEYDYVSFQSDIGPYQSGRFYTKPPQCVDIPADLRLCHNVGYKKMVLPNLLEHETMAEVKQQASSWVPLLNKNCHAGTQVFLCSLFAPVCLDRPIYPCRWLCEAVRDSCEPVMQFFGFYWPEMLKCDKFPEGDVCIAMTPPNATEASKPQGTTVCPPCDNELKSEAIIEHLCASEFALRMKIKEVKKENGDKKIVPKKKKPLKLGPIKKKDLKKLVLYLKNGADCPCHQLDNLSHHFLIMGRKVKSQYLLTAIHKWDKKNKEFKNFMKKMKNHECPTFQSVFK
modifications: C-terminal HA tag
notes: human secreted Frizzled Related Protein 1, Wnt antagonist; expressed from pBabe-derived retrovirus with carboxy-terminal HA tag

Tests used:
Type in all cases: cell-based, human
uncomplexed β-catenin [1] = assay: Uncomplexed β-catenin in MDAMB157 breast tumor cells; design: levels of uncomplexed β-catenin: dose or concentration left out as unconfirmed; details: for uncomplexed β-catenin levels: stable expression by retroviral mediated transduction
Experimental: (§1) β-catenin levels were assessed using the GST-E-cadherin binding assay, which has been previously described (Bafico et al., (1998) Oncogene 16:2819-2825). Briefly, bacterially expressed GST-E-cadherin was purified with glutathione-Sepharose beads and incubated with 1 mg of each cell lysate. The GST-E-cadherin/[…]-catenin complex bound to the beads was recovered by centrifugation and analyzed by SDS-PAGE followed by immunoblotting. The uncomplexed β-catenin was detected using a monoclonal antibody to β-catenin (Transduction Laboratories). Unphosphorylated β-catenin was detected with a monoclonal antibody specific for β-catenin dephosphorylated at residues 27-37 (Alexis, Läufelfingen, Switzerland). FRP1-HA and DKK1-HA were detected with an anti-HA monoclonal antibody (Hybridoma Center, Mount Sinai School of Medicine, New York).
MDAMB157 cell cultures were exposed to increasing concentrations of purified DKK1, and then were solubilized and analyzed for uncomplexed β-catenin using immunoblot analysis and an anti-[…]-catenin antibody as described in Example 3.
MDAMB157 cells were infected with vector alone, FRP1-HA (described in Example 1), or DKK1-HA (described in Example 1) retroviruses and marker selected. Uncomplexed β-catenin protein levels were analyzed using immunoblot analysis with an anti-β-catenin antibody as described in Example 3. Expression of FRP1-HA or DKK1-HA were assessed by immunblot analysis of lysates using an anti-HA monoclonal antibody (Hybridoma Center, Mount Sinai School of Medicine, New York).

AB589 = assay: Saturation density of AB589 cells; details: AB589 infected with retrovirus (data not shown)
MDAMB157 cells = assay: tBh-induced apoptosis (Annexin/PI FACS) in MDAMB157 cells; details: each concentration of tBh, over-expression vs vector
Experimental: (§2) To assess the effects of Wnt inhibition by FRP1 or DKK1 on the response of MDAMB157 cells to apoptotic stimuli, we exposed AB589 or MDAMB157 cells expressing either vector control, FRP1 or DKK1 to increasing concentrations of tert-butyl hydroperoxide (tBh) (Sigma) a known inducer of oxidative stress that causes DNA damage through reactive oxygen species (ROS) (Macip et al., (2003) Mol. Cell. Biol. 23:8576-8585), and analyzed the apoptotic response. Sub-confluent cultures were treated with increasing amounts of tert-butyl hydroperoxide (tBH) for 2 hours. Twenty-four hours later, cells were washed in PBS, trypsinized and incubated with Annexin and PI using the Annexin-V-Fluos Staining kit (Roche). Fluorescent stained cells were subjected to FACS (Beckton Dickinson FACScan) using Cell Quest 3.2 software (Beckton Dickinson) for acquisition and analysis.

H1355 = assay: tBh-induced apoptosis in H1355 NSCLC cells; details: H1355 NSCLC cells (data not shown)
Experimental: as §2
We have also tested the effects of tBh on lung tumor cells with autocrine Wnt signaling in the presence or absence of the Wnt antagonists FRP and DKK. […] These findings indicate that inhibition of a Wnt autocrine signaling mechanism in tumor cells by Wnt antagonists such as FRP or DKK would make them more sensitive to the killing effects of standard chemo or irradiation therapies. We noted that levels of expression of these antagonists decreased with passage of the transfected and marker selected tumor cells.

AB589 cells = assay: tBh-induced apoptosis (Annexin/PI FACS) in AB589 cells
Experimental: as §2

LEF-1 = assay: Northern blot of LEF-1 in MDAMB157 cells; details: stable expression
Experimental: (§3) Alterations in the expression of a number of genes identified as targets of canonical Wnt signaling have been reported, although it should be noted that there is variability among Wnt target genes in different cell systems (Giles et al., (2003). Biochim. Biophys. Acta 1653:1-24). To investigate the effects of FRP1 and DKK1 inhibition on gene expression in MDAMB157 breast tumor cells, Northern blot analysis was performed on representative Wnt transcriptional targets, including Myc (He et al., (1998) Science 281:1509-1512), the LEF-1 transcription factor (Filali et al., (2002) J. Biol. Chem. 277:33398-33410) and the dominant negative helix-loop-helix transcriptional regulator, Id2 (Rockman et al., (2001) J. Biol. Chem. 276:45113-45119).
(§4) Total RNAs from MDAMB157 cells exogenously expressing vector alone, FRP1, or DKK1 were extracted using Triazol (Invitrogen), separated by agarose gel electrophoresis (1% agarose gel) and transferred to a nylon membrane (Hybond, Pharmacia). Probes were labeled by the Random Prime Labelling System method (Amersham Biosciences), and hybridization was performed overnight utilizing the Hybrisol I solution (Serologicals Corporation) according to the manufacturer's instructions. Normalization was performed utilizing a commercial human GADPH control probe (BD Biosciences Clontech). Probes were labelled with α-^32P-dCTP.

ID2 = assay: Northern blot of ID2 in MDAMB157 cells; details: stable expression
Experimental: as §3, §4

MYC = assay: Northern blot of MYC in MDAMB157 cells; details: stable expression
Experimental: as §3, §4

cyclin D1 = assay: Northern blot of cyclin D1 in MDAMB157 cells; details: stable expression (data not shown)
Experimental: as §3
as §4, with “α-^32P-dCTP. […]” for “α-^32P-dCTP.”

keratin 8 = assay: RNA blot of keratin 8 in MDAMB157 cells; details: stable expression
Experimental: as §4
(§5) Since canonical Wnt signaling appears to be involved in maintaining epithelial progenitor cells of several tissues (van de Wetering et al. (2002) Cell 111:241-250; Alonso and Fuchs (2003) Genes Dev. 17:1189-1200; Reya et al. (2003) Nature 423:409-414; Polesskaya et al. (2003) Cell 113, 841-852), including the mouse mammary gland (Li et al. (2003) Proc Natl Acad Sci U.S.A. 100:15853-15858; Liu et al. (2004) Proc. Nat'l Acad. Sci. U.S.A. 101:4158-4163), we also investigated whether downregulation of Wnt signaling in MDAMB157 tumor cells affected their differentiated state. […] All of these findings provide evidence for a Wnt autocrine transforming mechanism in human tumor cells.

keratin 18 = assay: RNA blot of keratin 18 in MDAMB157 cells; details: stable expression
Experimental: as §4, §5

uncomplexed β-catenin [2] = assay: Uncomplexed β-catenin in Wnt autocrine tumor cells (summary statements); details: summary of the Examples
Experimental: as §1

Row | Molecule | levels of uncomplexed β-catenin (uncomplexed β-catenin [1]; increasing concentrations of purified DKK1) | uncomplexed β-catenin levels (uncomplexed β-catenin [1]) | saturation density (AB589) | level of apoptosis (MDAMB157 cells) | sensitivity to induction of apoptosis by tBh (H1355) | apoptotic responses compared to the vector infected cells (AB589 cells) | expression of LEF-1 (LEF-1) | expression of ID2 (ID2) | expression of MYC (MYC) | levels of cyclin D1 (cyclin D1) | expression of keratin 8 (keratin 8) | keratin 18 levels (keratin 18) | up regulated uncomplexed β-catenin levels (uncomplexed β-catenin [2])
1 | B1 | dose dependent, marked reduction | dramatic reduction | no detectable effect | statistically significant increase | more sensitive to induction of apoptosis | no detectable differences | reduced | reduced | reduced | did not observe significant changes | striking increase | increase | down regulation; also recorded: striking reduction
2 | B2 | – | dramatic reduction | no detectable effect | statistically significant increase | more sensitive to induction of apoptosis | no detectable differences | reduced | reduced | reduced | did not observe significant changes | striking increase | increase | down regulation
